Data published in patent US20150337053A1.

Columns and labels:
[1] = target: human FcγRI (human) (UniProt P12314); experiment: SPR (Biacore 3000), His-tagged receptor captured on anti-His IgG, antibody injected; 1:1 kinetic fit
[2] = target: human FcγRIIa (Example 1, allotype not stated) (human) (UniProt P12318); experiment: SPR (Biacore 3000), His-tagged receptor captured on anti-His IgG, antibody injected; steady state fit
[3] = target: human FcγRI (human) (UniProt P12314); experiment: as above
[4] = target: human FcγRIIIa (Example 1) (human) (UniProt P08637); experiment: as above
[5] = target: human FcγRIIIa (Example 1) (human) (UniProt P08637); experiment: SPR (Biacore 3000), His-tagged receptor captured on anti-His IgG, antibody injected; 1:1 kinetic fit

Chain of human FcγRIIIa (Example 1) (human) (P08637 17-208 F176V limits assumed): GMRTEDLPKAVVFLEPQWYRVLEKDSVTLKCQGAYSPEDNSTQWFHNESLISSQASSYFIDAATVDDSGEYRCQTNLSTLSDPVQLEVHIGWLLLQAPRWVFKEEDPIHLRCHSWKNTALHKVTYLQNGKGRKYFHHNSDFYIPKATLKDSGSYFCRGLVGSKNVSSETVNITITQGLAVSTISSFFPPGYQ
Chain of human FcγRI (human) (P12314 16-288 limits assumed): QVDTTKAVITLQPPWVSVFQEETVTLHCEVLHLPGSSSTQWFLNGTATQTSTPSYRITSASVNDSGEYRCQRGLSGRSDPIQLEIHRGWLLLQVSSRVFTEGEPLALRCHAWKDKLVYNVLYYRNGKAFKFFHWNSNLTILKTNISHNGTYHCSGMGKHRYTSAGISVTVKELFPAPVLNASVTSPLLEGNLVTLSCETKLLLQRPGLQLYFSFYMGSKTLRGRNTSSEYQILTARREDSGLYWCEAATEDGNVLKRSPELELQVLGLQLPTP
Chain of human FcγRIIa (Example 1, allotype not stated) (human) (P12318 36-218 limits assumed): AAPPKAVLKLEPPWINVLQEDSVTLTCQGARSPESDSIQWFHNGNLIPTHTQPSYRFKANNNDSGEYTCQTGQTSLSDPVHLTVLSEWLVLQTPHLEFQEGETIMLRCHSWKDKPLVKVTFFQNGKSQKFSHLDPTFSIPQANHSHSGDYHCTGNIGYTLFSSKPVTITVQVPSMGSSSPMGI

Row | Substance | Kd [1] | Kd [2] | Kd [3] | Kd [4] | Kd [5]
1 | huIgG1 (wild type human IgG1 isotype, anti-Her2/neu construct) (antibody) | 0.013 µM | 0.7 µM | – | – | –
2 | huIgG1-Ag (aglycosylated IgG1, N297A) (antibody) | – | > 170 µM | 3.7 µM | > 95 µM | –
3 | huIgG2 (wild type human IgG2 isotype, anti-Her2/neu construct) (antibody) | – | 1 µM | 120 µM | 41 µM | –
4 | huIgG2c4a (H268A, V309L, A330S, P331S) (antibody) | – | 2.2 µM | 160 µM | 85 µM | –
5 | huIgG2c4b (V234A, G237A, H268Q, V309L, A330S, P331S) (antibody) | – | 170 µM | 38 µM | > 95 µM | –
6 | huIgG2c4c (V234A, G237A, H268A, V309L, A330S, P331S) (antibody) | 0.044 µM | 19 µM | – | – | 0.64 µM
7 | huIgG2c4d (V234A, G237A, P238S, H268A, V309L, A330S, P331S) (antibody) | – | > 170 µM | > 210 µM | > 95 µM | –
8 | huIgG2c4e (P233S, V234A, G237A, P238S, H268A, V309L, A330S, P331S) (antibody) | – | > 170 µM | > 210 µM | > 95 µM | –
9 | huIgG2m4 (H268Q, V309L, A330S, P331S) (antibody) | – | 2.7 µM | 210 µM | 95 µM | –
10 | huIgG4 Ala-Ala, Ser-Pro (S228P, F234A, L235A) (antibody) | – | 150 µM | 15 µM | 55 µM | –
